According to patent US20120165249A1:

Experiments:
[1] = biological target: HIV-1 CA protein (capsid) (HIV-1); test: cell-based or functional assay
[2] = biological target: HIV-1 gag polyprotein (HIV-1); test: cell-based or functional assay

Substance: NYAD-1 (peptide)
- inhibition of mature-like particle formation from purified CA protein in vitro (EM) (fold molar equivalent) [1]: 1
- release of immature-like particles from gag-transfected 293T cells (p24 ELISA) (fold reduction at 50 µM) [2]: 72
- release of mature-like particles from gag-pol transfected 293T cells (p24 ELISA) (fold reduction at 50 µM) [2]: 67
